Laboratory results reported in the supplement of paper PMC10724198.
± gives the standard deviation of the averaged measurements.

Legend:
Saccharomyces cerevisiae [1] = experiment: protein stability index of tFT-peptide fusion (C-terminal peptide) (PSI (0-1 scale)); higher = more stable (slower turnover); details: genetic background: wild type; temperature: 30 C
Saccharomyces cerevisiae [2] = experiment: as above
Experimental: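 MPS profiling in S. cerevisiae of the tFT-X12 degron library: putative degron peptides plus stable controls, 12 aa, fused to the C-terminus of a sfGFP-mCherry timer. Cells are FACS-sorted into 8 mCherry/sfGFP bins and deep-sequenced. PSI runs from 0 (unstable) to 1 (stable). Backgrounds are wild type, das1Δ and doa10Δ at 30 °C, and wild type, das1Δ, cdc34-1 and cdc53-1 at 37 °C; 2-3 technical replicates each.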

[3] = genetic background: cdc34-1, temperature: 37 C
[4] = genetic background: cdc53-1, temperature: 37 C
[5] = genetic background: das1 deletion, temperature: 30 C
[6] = genetic background: das1 deletion, temperature: 37 C
[7] = genetic background: doa10 deletion, temperature: 30 C
[8] = genetic background: wild type, temperature: 30 C
[9] = genetic background: wild type, temperature: 37 C
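Also: PSI is a weighted mean of sequencing reads over stability bins, variants kept only with over 10 reads, mCherry proximal and sfGFP distal, peptide attached via GGGS linker.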

Row | Sequence | protein stability index (Saccharomyces cerevisiae [1]) | protein stability index (Saccharomyces cerevisiae [2]; [3]) | protein stability index (Saccharomyces cerevisiae [2]; [4]) | protein stability index (Saccharomyces cerevisiae [2]; [5]) | protein stability index (Saccharomyces cerevisiae [2]; [6]) | protein stability index (Saccharomyces cerevisiae [2]; [7]) | protein stability index (Saccharomyces cerevisiae [2]; [8]) | protein stability index (Saccharomyces cerevisiae [2]; [9])
1 | GALVVSWAEVLC | 0.503 ± 0.012 | 0.5163 ± 0.0026 | 0.525 ± 0.01 | 0.402 ± 0.024 | 0.555 ± 0.0083 | 0.372 ± 0.014 | 0.402 ± 0.037 | 0.57 ± 0.02
2 | RSPIRYPPVVLS | 0.518 ± 0.07 | 0.698 ± 0.038 | 0.753 ± 0.011 | 0.645 ± 0.021 | 0.7493 ± 0.0034 | 0.539 ± 0.021 | 0.539 ± 0.008 | 0.6895 ± 0.0015
3 | SPAIRAILAPAG | 0.445 ± 0.034 | 0.476 ± 0.059 | 0.504 ± 0.013 | 0.404 ± 0.021 | 0.546 ± 0.0073 | 0.402 ± 0.014 | 0.43 ± 0.036 | 0.532 ± 0.0079
4 | GFRVPVVVGVRG | 0.432 ± 0.0044 | 0.449 ± 0.023 | 0.475 ± 0.03 | 0.334 ± 0.041 | 0.531 ± 0.0077 | 0.2939 ± 0.0024 | 0.33 ± 0.042 | 0.4999 ± 0.0013
5 | YPLISVSLPCPS | 0.489 ± 0.012 | 0.533 ± 0.018 | 0.6067 ± 0.0052 | 0.396 ± 0.042 | 0.585 ± 0.015 | 0.349 ± 0.005 | 0.404 ± 0.023 | 0.544 ± 0.016
6 | LPASLSLWPLLC | 0.1137 ± 0.0011 | 0.4736 ± 0.0023 | 0.604 ± 0.025 | 0.537 ± 0.019 | 0.668 ± 0.012 | 0.0836 ± 0.017 | 0.0983 ± 0.017 | 0.127 ± 0.015
7 | EGALSGGGKTSG | 0.651 ± 0.24 | 0.643 ± 0.045 | 0.719 ± 0.019 | 0.634 ± 0.016 | 0.7181 ± 0.0047 | 0.636 ± 0.014 | 0.631 ± 0.012 | 0.692 ± 0.018
8 | SRGKMTIVSNQI | 0.574 ± 0.15 | 0.6525 ± 0.00094 | 0.734 ± 0.011 | 0.652 ± 0.021 | 0.7389 ± 0.0072 | 0.642 ± 0.011 | 0.669 ± 0.016 | 0.704 ± 0.028
9 | GWVSCCVWSFLV | 0.122 ± 0.015 | 0.243 ± 0.028 | 0.5924 ± 0.0053 | 0.531 ± 0.016 | 0.663 ± 0.0083 | 0.066 ± 0.012 | 0.066 ± 0.0087 | 0.063 ± 0.016
10 | CWDNTLKTMRQM | 0.228 ± 0.1 | 0.67 ± 0.0063 | 0.732 ± 0.022 | 0.655 ± 0.042 | 0.7322 ± 0.0059 | 0.307 ± 0.015 | 0.333 ± 0.018 | 0.5969 ± 0.0032
11 | IWWFKELRVCRV | 0.49 ± 0.013 | 0.506 ± 0.014 | 0.559 ± 0.013 | 0.435 ± 0.022 | 0.5589 ± 0.0019 | 0.4128 ± 0.0013 | 0.424 ± 0.024 | 0.539 ± 0.017
12 | LAISTIQMFKRI | 0.38 ± 0.019 | 0.677 ± 0.049 | 0.718 ± 0.04 | 0.624 ± 0.017 | 0.718 ± 0.018 | 0.295 ± 0.021 | 0.327 ± 0.022 | 0.568 ± 0.038
13 | GSLLWSGWSTCY | 0.761 ± 0.043 | 0.768 ± 0.018 | 0.811 ± 0.011 | 0.698 ± 0.058 | 0.826 ± 0.0092 | 0.6696 ± 0.0058 | 0.693 ± 0.022 | 0.763 ± 0.0077
14 | NFVVYHVAIRVP | 0.243 ± 0.037 | 0.073 ± 0.0071 | 0.134 ± 0.0046 | 0.17 ± 0.017 | 0.2466 ± 0.0024 | 0.139 ± 0.0025 | 0.155 ± 0.019 | 0.198 ± 0.02
15 | GGGVWWGVLVLG | 0.46142 ± 8.8e-05 | 0.37 ± 0.028 | 0.451 ± 0.064 | 0.31 ± 0.037 | 0.50956 ± 0.00012 | 0.262 ± 0.0072 | 0.309 ± 0.033 | 0.4678 ± 0.0034
16 | RLMVHQHTIPVR | 0.4449 ± 0.0039 | 0.463 ± 0.072 | 0.54 ± 0.016 | 0.307 ± 0.037 | 0.559 ± 0.021 | 0.276 ± 0.035 | 0.316 ± 0.0095 | 0.533 ± 0.0081
17 | CVGRPIALAVRT | 0.511 ± 0.022 | 0.52676 ± 0.0004 | 0.519 ± 0.048 | 0.375 ± 0.04 | 0.56 ± 0.0093 | 0.338 ± 0.025 | 0.38 ± 0.028 | 0.51959 ± 0.00012
18 | SCCIYVALCRWL | 0.382 ± 0.016 | 0.473 ± 0.024 | 0.573 ± 0.0093 | 0.43 ± 0.024 | 0.5601 ± 0.0013 | 0.323 ± 0.0071 | 0.353 ± 0.035 | 0.48 ± 0.0084
19 | LFHVWSLRFFWL | 0.391 ± 0.023 | 0.576 ± 0.039 | 0.669 ± 0.017 | 0.557 ± 0.018 | 0.6837 ± 0.0039 | 0.2583 ± 0.00064 | 0.282 ± 0.027 | 0.434 ± 0.015
20 | VWACWCGWVLLM | 0.235 ± 0.072 | 0.319 ± 0.038 | 0.388 ± 0.024 | 0.314 ± 0.027 | 0.4667 ± 0.0039 | 0.153 ± 0.0066 | 0.15 ± 0.019 | 0.195 ± 0.0032

Row | Sequence | protein stability index (Saccharomyces cerevisiae [1]) | protein stability index (Saccharomyces cerevisiae [2]; [3]) | protein stability index (Saccharomyces cerevisiae [2]; [4]) | protein stability index (Saccharomyces cerevisiae [2]; [5]) | protein stability index (Saccharomyces cerevisiae [2]; [6]) | protein stability index (Saccharomyces cerevisiae [2]; [7]) | protein stability index (Saccharomyces cerevisiae [2]; [8]) | protein stability index (Saccharomyces cerevisiae [2]; [9])
21 | GGYVTVTSVTVV | 0.468 ± 0.039 | 0.587 ± 0.051 | 0.62 ± 0.02 | 0.501 ± 0.025 | 0.605 ± 0.019 | 0.499 ± 0.035 | 0.506 ± 0.011 | 0.611 ± 0.015
22 | SCCGCGFGLLFC | 0.73 ± 0.018 | 0.731 ± 0.011 | 0.807 ± 0.0017 | 0.631 ± 0.023 | 0.7812 ± 0.0002 | 0.643 ± 0.032 | 0.632 ± 0.016 | 0.7399 ± 0.0056
23 | RVLILCLFFRWS | 0.347 ± 0.18 | 0.2532 ± 0.00072 | 0.404 ± 0.0096 | 0.274 ± 0.033 | 0.435 ± 0.0084 | 0.257 ± 0.0049 | 0.279 ± 0.029 | 0.397 ± 0.016
24 | VFFMFVFFPFPG | 0.471 ± 0.026 | 0.523 ± 0.084 | 0.584 ± 0.035 | 0.404 ± 0.029 | 0.592 ± 0.03 | 0.368 ± 0.014 | 0.413 ± 0.028 | 0.538 ± 0.0059
25 | IMWCSSVSEVQW | 0.4741 ± 0.0032 | 0.538 ± 0.075 | 0.582 ± 0.0064 | 0.472 ± 0.027 | 0.518 ± 0.0069 | 0.492 ± 0.03 | 0.494 ± 0.047 | 0.5016 ± 0.0029
26 | VFVRDFLVSIVV | 0.257 ± 0.014 | 0.0474 ± 0.014 | 0.0563 ± 0.0023 | 0.174 ± 0.025 | 0.196 ± 0.0061 | 0.139 ± 0.0096 | 0.164 ± 0.022 | 0.166 ± 0.011
27 | LFHPPSFSLRLF | 0.528 ± 0.25 | 0.681 ± 0.038 | 0.738 ± 0.025 | 0.678 ± 0.019 | 0.748 ± 0.023 | 0.301 ± 0.038 | 0.348 ± 0.025 | 0.5619 ± 0.0044
28 | HLYCYNILLVSG | 0.286 ± 0.042 | 0.2001 ± 0.00066 |  | 0.306 ± 0.04 | 0.419 ± 0.007 | 0.201 ± 0.018 | 0.254 ± 0.015 | 0.375 ± 0.038
29 | VKSAVLLFFLVT | 0.257 ± 0.0044 | 0.357 ± 0.0084 | 0.483 ± 0.019 | 0.359 ± 0.031 | 0.537 ± 0.0055 | 0.178 ± 0.016 | 0.199 ± 0.021 | 0.312 ± 0.01
30 | GFGRDHGNDTGP | 0.721 ± 0.0055 | 0.712 ± 0.017 | 0.7331 ± 0.0021 | 0.6497 ± 0.0025 | 0.75 ± 0.0082 | 0.645 ± 0.021 | 0.648 ± 0.02 | 0.725 ± 0.0097
31 | GWIFFYFTWFVG | 0.263 ± 0.022 | 0.127 ± 0.018 | 0.236 ± 0.025 | 0.198 ± 0.028 | 0.319 ± 0.017 | 0.181 ± 0.029 | 0.172 ± 0.035 | 0.275 ± 0.0097
32 | LLDIYFILLVWF | 0.346 ± 0.29 | 0.263 ± 0.02 | 0.237 ± 0.03 | 0.267 ± 0.023 | 0.399 ± 0.024 | 0.359 ± 0.021 | 0.258 ± 0.019 | 0.432 ± 0.066
33 | KLRELQVRQQLS | 0.382 ± 0.02 | 0.648 ± 0.1 | 0.677 ± 0.015 | 0.635 ± 0.03 | 0.7272 ± 0.0049 | 0.189 ± 0.021 | 0.199 ± 0.025 | 0.413 ± 0.017
34 | VFFCVLRVFFSA | 0.193 ± 0.017 | 0.0798 ± 0.024 | 0.161 ± 0.015 | 0.175 ± 0.024 | 0.291 ± 0.0075 | 0.114 ± 0.013 | 0.132 ± 0.029 | 0.195 ± 0.0091
35 | SCIVRTLVPCPS | 0.373 ± 0.022 | 0.377 ± 0.0049 | 0.419 ± 0.034 | 0.253 ± 0.04 | 0.4761 ± 0.0022 | 0.224 ± 0.016 | 0.27 ± 0.029 | 0.445 ± 0.0094
36 | GLLFWSGVVSWV | 0.4 ± 0.0088 | 0.2627 ± 0.0023 | 0.388 ± 0.058 | 0.243 ± 0.038 | 0.507 ± 0.0027 | 0.225 ± 0.0065 | 0.263 ± 0.038 | 0.504 ± 0.014
37 | WLALSFFSFFFC | 0.588 ± 0.19 | 0.654 ± 0.014 | 0.7221 ± 0.00075 | 0.588 ± 0.025 | 0.6825 ± 0.0042 | 0.577 ± 0.047 | 0.57 ± 0.026 | 0.66 ± 0.02
38 | SRSVLLCFCWLC | 0.347 ± 0.011 | 0.356 ± 0.055 | 0.4492 ± 0.0017 | 0.411 ± 0.038 | 0.5256 ± 0.0042 | 0.27 ± 0.0089 | 0.264 ± 0.014 | 0.3461 ± 0.00068
39 | FSCRRISFFLLV | 0.182 ± 0.05 | 0.525 ± 0.014 | 0.676 ± 0.039 | 0.536 ± 0.043 | 0.628 ± 0.017 | 0.179 ± 0.011 | 0.176 ± 0.012 | 0.26 ± 0.015
